Experimental data: the supplement of paper PMC10567573

B1: RHOBTB3 (parent)
chain: QLQSMPSRELASMNLDIVDLLKKA

Variants of: B1
Experiment: protein stability index of a GFP-peptide fusion (GPS, HEK-293T) (PSI 1-6); higher = more stable
Conditions: c terminus: a fixed tail appended
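Also: lentivirally expressed fusions sorted by FACS into six bins by GFP to DsRed ratio, PSI derived from sequencing read proportions per bin multiplied by bin number.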

Protein stability index: each site, then its substitutions
Q1: F 2.95 | G 3.51 | H 2.92 | I 2.71 | K 4.12 | L 2.55 | M 3.38 | N 3.65 | P 4.72 | R 3.72 | S 2.75 | T 3.66 | V 2.98 | W 2.62 | Y 2.98
L2: A 3.21 | C 4.45 | D 4 | E 4.29 | F 3.04 | I 3.16 | K 3.18 | M 3.83 | N 3.71 | P 4.72 | Q 3.78 | R 3.47 | T 3.55 | V 2.77 | W 3.31 | Y 4.34
Q3: D 3.5 | E 3.7 | F 2.62 | G 3.85 | I 3.18 | L 2.68 | M 3.35 | N 2.56 | P 4.39 | R 4.02 | S 3.44 | T 3.38 | V 2.98 | W 2.48 | Y 2.75
S4: A 3 | C 3.54 | D 3.82 | E 4.83 | F 3.19 | G 3.82 | H 3.24 | I 3.78 | K 3.08 | L 3.23 | M 3.28 | N 2.78 | P 3.54 | R 3.06 | T 3.64 | V 3.11 | W 3.6 | Y 3.75
M5: A 3.04 | C 3.23 | D 3.78 | E 3.54 | F 3.33 | G 2.58 | H 3.43 | I 2.95 | K 4.06 | L 3.88 | N 2.78 | P 3.54 | Q 3.69 | R 3.46 | S 3.76 | T 3.94 | V 3.32 | W 2.07 | Y 2.01
P6: A 3.19
